Patent publication US8889621B2, “Inhibiting binding of FGF23 to the binary FGFR-Klotho complex for the treatment of hypophosphatemia” (New York University, priority 2009, dated 2014)
Peptide text beside a SMILES is read from it.

B1: FGF23^180-251: 72-amino acid C-terminal tail of human FGF23 (S180 to I251), expressed in E. coli (protein, listed as Homo sapiens)
chain: SAEDDSERDPLNVLKPRARMTPAPASCSQELPSAEDNSPMASDPLGVVRGGRVNTHAGGTGPEGCRPFAKFI
B2: FGF23^28-251: human FGF23 (A28 to I251), bioactive full-length ligand expressed in E. coli (protein, listed as Homo sapiens)
chain: ASPLLGSSWGGLIHLYTATARNSYHLQIHKNGHVDGAPHQTIYSALMIRSEDAGFVVITGVMSRRYLCMDFRGNIFGSHYFDPENCRFQHQTLENGYDVYHSPQYHFLVSLGRAKRAFLPGMNPPPYSQFLSRRNEIPLIHFNTPIPRRHTRSAEDDSERDPLNVLKPRARMTPAPASCSQELPSAEDNSPMASDPLGVVRGGRVNTHAGGTGPEGCRPFAKFI

Target: T1, binary FGFR1c-Klotho complex (UniProt O35082+P11362)
T1 construct: The ectodomain of murine Klotho (A35 to K982) was purified from culture media; FLAG (C); made in house; host or cells: E. coli (FGFR1c, FGF23); HEK293 (Klotho ectodomain)
T1 sequence (P11362 142-365): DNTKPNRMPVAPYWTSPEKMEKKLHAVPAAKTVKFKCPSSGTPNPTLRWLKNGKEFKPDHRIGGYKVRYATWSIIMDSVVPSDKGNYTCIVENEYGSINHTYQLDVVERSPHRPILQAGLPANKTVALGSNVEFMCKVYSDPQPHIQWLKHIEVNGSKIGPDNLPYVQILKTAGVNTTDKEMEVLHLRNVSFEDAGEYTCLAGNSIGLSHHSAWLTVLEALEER
T1 sequence (O35082 35-982): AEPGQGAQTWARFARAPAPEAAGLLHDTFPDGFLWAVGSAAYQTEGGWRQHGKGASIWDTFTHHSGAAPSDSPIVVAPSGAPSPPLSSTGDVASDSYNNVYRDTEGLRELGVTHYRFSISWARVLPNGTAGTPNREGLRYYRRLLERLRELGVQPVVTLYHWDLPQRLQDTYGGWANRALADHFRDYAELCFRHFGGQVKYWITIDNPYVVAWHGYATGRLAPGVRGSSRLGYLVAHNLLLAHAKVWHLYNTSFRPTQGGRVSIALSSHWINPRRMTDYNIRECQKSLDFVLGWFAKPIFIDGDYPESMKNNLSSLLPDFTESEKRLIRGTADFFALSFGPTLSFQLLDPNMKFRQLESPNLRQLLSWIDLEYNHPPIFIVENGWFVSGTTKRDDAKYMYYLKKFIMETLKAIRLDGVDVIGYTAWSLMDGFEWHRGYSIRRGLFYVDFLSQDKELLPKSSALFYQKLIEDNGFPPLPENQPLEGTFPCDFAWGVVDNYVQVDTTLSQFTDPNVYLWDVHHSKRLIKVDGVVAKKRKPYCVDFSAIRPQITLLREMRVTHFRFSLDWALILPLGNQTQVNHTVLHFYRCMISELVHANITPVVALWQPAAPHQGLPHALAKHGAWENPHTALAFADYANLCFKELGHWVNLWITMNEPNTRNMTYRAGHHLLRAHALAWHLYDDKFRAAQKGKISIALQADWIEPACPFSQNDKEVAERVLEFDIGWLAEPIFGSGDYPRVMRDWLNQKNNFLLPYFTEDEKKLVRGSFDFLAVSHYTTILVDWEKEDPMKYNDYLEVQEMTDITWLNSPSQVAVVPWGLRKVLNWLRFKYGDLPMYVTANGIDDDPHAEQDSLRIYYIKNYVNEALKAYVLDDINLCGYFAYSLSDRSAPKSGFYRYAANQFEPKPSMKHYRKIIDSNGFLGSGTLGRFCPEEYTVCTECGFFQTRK
Experiment: SPR competition: FGFR1c-Klotho binding to immobilized FGF23^28-251
Parameters: species or system human FGFR1c, murine Klotho
Settings: for inhibition of FGFR1c-Klotho binding to immobilized FGF23^28-251: FGF21^168-209 at molar ratios of 6:1 and 10:1; for rightward shift of dose-response curve compared to full-length FGF23: FIG. 3D
Description: A variety of interaction or binding assays can be used to determine that an agent specifically binds the binary FGFR-Klotho complex, such as the SPR interaction analysis described below. One aspect of the present invention utilizes SPR analysis of FGF23 protein/peptide binding to the binary FGFR-Klotho complex. The SPR analysis involved FGF23 protein/peptide immobilization by amine coupling on flow channels of a chip. Proteins were injected over the chip at a flow rate of 50 μl min^−1, and at the end of each protein injection (180 s), HBS-EP buffer (10 mM HEPES-NaOH, pH 7.4, 150 mM NaCl, 3 mM EDTA, 0.005% (v/v) polysorbate 20; 50 μl min^−1) was flowed over the chip to monitor dissociation for 180 s. The chip surface was then regenerated by injecting 50 μl of 2.0 M NaCl in 10 mM sodium acetate, pH 4.5. […] For each protein injection over a FGF23 protein/peptide chip, the nonspecific responses from the FHF1B control flow channel were subtracted from the responses recorded for the flow channel onto which FGF23 protein/peptide was immobilized. To analyze FGF23 binding to the binary FGFR1c-Klotho complex, FGF23^28-251 was coupled to a chip, and increasing concentrations of 1:1 complex of the ectodomains of FGFR1c and Klotho in HBS-EP buffer were passed over the chip. To measure binding of the C-terminal tail of FGF23 to the binary FGFR1c-Klotho complex, FGF23^180-251 was immobilized on a chip, and increasing concentrations of 1:1 complex of the ectodomains of FGFR1c and Klotho in HBS-EP buffer were passed over the chip. To examine whether the C-terminal tail of FGF23 can compete with full-length FGF23 for binding to the binary FGFR1c-Klotho complex, FGF23^28-251 was immobilized on a chip. Increasing concentrations of FGF23^180-251 were mixed with a fixed concentration of 1:1 complex of the ectodomains of FGFR1c and Klotho in HBS-EP buffer, and the mixtures were passed over the chip. As a control, competition of FGF23 in solution with immobilized FGF23 for binding to the binary FGFR1c-Klotho complex was studied. Increasing concentrations of FGF23^28-251 were mixed with a fixed concentration of 1:1 complex of the ectodomains of FGFR1c and Klotho in HBS-EP buffer, and the mixtures were passed over the FGF23 chip. Competition of the FGF23 C-terminal tail peptide with full-length FGF23 for binding to the binary FGFR1c-Klotho complex was also studied using the “reverse” SPR assay format, where FGF23^180-251 was immobilized on a chip and mixtures of a fixed concentration of 1:1 complex of the ectodomains of FGFR1c and Klotho with increasing concentrations of FGF23^28-251 were passed over the chip. As a control, competition of FGF23 C-terminal tail peptide in solution with immobilized FGF23 C-terminal tail peptide for binding to the binary FGFR1c-Klotho complex was analyzed. Increasing concentrations of FGF23^180-251 were mixed with a fixed concentration of 1:1 complex of the ectodomains of FGFR1c and Klotho in HBS-EP buffer, and the mixtures were passed over the FGF23^180-251 chip. To verify the specificity of the interaction between the FGF23 C-terminal tail and the FGFR1c-Klotho complex, FGF23^28-251 was immobilized on a chip. Increasing concentrations of FGF21^168-209 were mixed with a fixed concentration of 1:1 complex of the ectodomains of FGFR1c and Klotho in HBS-EP buffer, and the mixtures were passed over the chip. In addition, the ability of the FGF23 C-terminal tail peptide to interfere with binary complex formation between βKlotho and either FGF19 or FGF21 was tested, as was its ability to interfere with ternary complex formation between βKlotho, FGFR, and either FGF19 or FGF21. FGF19^23-216 and FGF21^29-209 were immobilized on two flow channels of a chip. FGF23^180-251 and the ectodomain of βKlotho were mixed at a molar ratio of 2:1, and the mixture was injected over the chip. Next, FGF23^180-251 and the 1:1 complex of the ectodomains of FGFR1c and βKlotho were mixed at a molar ratio of 10:1, and the mixture was passed over the FGF19/FGF21 chip. […]

Molecule | inhibition of FGFR1c-Klotho binding to immobilized FGF23^28-251 | molar excess over FGFR1c-Klotho complex at half-maximum inhibition of FGFR1c-Klotho binding to FGF23^28-251 (FGF23^28-251 chip) [fold molar excess] | rightward shift of dose-response curve compared to full-length FGF23 | amount relative to FGFR1c-Klotho complex yielding 50% inhibition of binding to immobilized FGF23^28-251 (FGF23^28-251 chip, control)
CSCC[C@H](NC(=O)[C@H](CCCNC(=N)N)NC(=O)[C@H](C)NC(=O)[C@H](CCCNC(=N)N)NC(=O)[C@@H]1CCCN1C(=O)[C@H](CCCCN)NC(=O)[C@H](CC(C)C)NC(=O)[C@@H](NC(=O)[C@H](CC(N)=O)NC(=O)[C@H](CC(C)C)NC(=O)[C@@H]1CCCN1C(=O)[C@H](CC(=O)O)NC(=O)[C@H](CCCNC(=N)N)NC(=O)[C@H](CCC(=O)O)NC(=O)[C@H](CO)NC(=O)[C@H](CC(=O)O)NC(=O)[C@H](CC(=O)O)NC(=O)[C@H](CCC(=O)O)NC(=O)[C@H](C)NC(=O)[C@@H](N)CO)C(C)C)C(=O)N[C@H](C(=O)N1CCC[C@H]1C(=O)N[C@@H](C)C(=O)N1CCC[C@H]1C(=O)N[C@@H](C)C(=O)N[C@@H](CO)C(=O)O)[C@@H](C)O [FGF23^180-205] (H-SAEDDSERDPLNVLKPRARMTPAPAS-OH; N-terminus and C-terminus assumed) | able to compete, in a dose-dependent fashion | 5.7 | ~6 fold | 
B1 | competed, in a dose-dependent fashion | 3.3 | about 3 fold | 
B2 |  |  |  | less than an equimolar amount
